Laboratory results from US20100280227A1 (Genentech, published 2010).
Positions count from the first letter of the chain named. Names may count otherwise. One block for each binder: values may come before it.

Experiments:
[1] = target: T1, human BR3 expressed on cells (human, UniProt Q96RJ3 1-184); assay: cell-based or functional assay
[2] = target: T2, human FcγRI extracellular domain, His-tagged GST fusion (human, UniProt P12314 16-292); assay: ELISA, captured FcgR-GST; EC50herceptin/EC50sample
T2 construct: extracellular domain; also called hFcgRI; Human I

[3] = target: T3, human FcγRIIa extracellular domain, His-tagged GST fusion (human, UniProt P12318 34-217); assay: ELISA, captured FcgR-GST; EC50herceptin/EC50sample
T3 construct: extracellular domain; also called hFcgRIIa; Human IIa
T3 sequence (looked up): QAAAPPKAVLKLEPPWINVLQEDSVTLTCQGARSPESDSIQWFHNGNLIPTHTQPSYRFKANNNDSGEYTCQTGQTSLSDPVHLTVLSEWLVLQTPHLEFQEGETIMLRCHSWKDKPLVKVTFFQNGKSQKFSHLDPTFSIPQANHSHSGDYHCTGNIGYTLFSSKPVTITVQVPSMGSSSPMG

[4] = target: T4, mouse FcγRII extracellular domain, His-tagged GST fusion (mouse, UniProt P08101 30-210); assay: ELISA, captured FcgR-GST; EC50herceptin/EC50sample
T4 construct: extracellular domain; also called Mouse II
T4 sequence (looked up): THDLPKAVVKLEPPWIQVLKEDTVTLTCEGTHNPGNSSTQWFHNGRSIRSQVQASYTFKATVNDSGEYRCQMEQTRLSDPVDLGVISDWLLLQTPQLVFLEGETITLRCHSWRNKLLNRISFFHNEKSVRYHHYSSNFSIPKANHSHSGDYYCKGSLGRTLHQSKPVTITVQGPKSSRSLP

[5] = target: T5, human FcγRIIb extracellular domain, His-tagged GST fusion (human, UniProt P31994 43-217); assay: ELISA, captured FcgR-GST; EC50herceptin/EC50sample
T5 construct: extracellular domain; also called hFcgRIIb; Human IIb
T5 sequence (looked up): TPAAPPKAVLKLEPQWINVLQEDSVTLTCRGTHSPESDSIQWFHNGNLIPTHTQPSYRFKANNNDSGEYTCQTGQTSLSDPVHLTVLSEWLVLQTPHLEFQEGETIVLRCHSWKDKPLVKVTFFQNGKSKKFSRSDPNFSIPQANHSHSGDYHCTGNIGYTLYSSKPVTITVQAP

[6] = target: T6, mouse FcγRIII extracellular domain, His-tagged GST fusion (mouse, UniProt P08508 31-215); assay: ELISA, captured FcgR-GST; EC50herceptin/EC50sample
T6 construct: extracellular domain; also called Mouse III
T6 sequence (looked up): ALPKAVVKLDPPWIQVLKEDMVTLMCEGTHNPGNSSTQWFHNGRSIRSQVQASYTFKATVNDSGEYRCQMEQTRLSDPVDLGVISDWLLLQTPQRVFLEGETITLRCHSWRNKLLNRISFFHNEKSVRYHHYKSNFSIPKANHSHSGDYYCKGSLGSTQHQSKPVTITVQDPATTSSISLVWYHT

[7] = target: T7, mouse FcγRI extracellular domain, His-tagged GST fusion (mouse, UniProt P26151 25-297); assay: ELISA, captured FcgR-GST; EC50herceptin/EC50sample
T7 construct: extracellular domain; also called Mouse I
T7 sequence (looked up): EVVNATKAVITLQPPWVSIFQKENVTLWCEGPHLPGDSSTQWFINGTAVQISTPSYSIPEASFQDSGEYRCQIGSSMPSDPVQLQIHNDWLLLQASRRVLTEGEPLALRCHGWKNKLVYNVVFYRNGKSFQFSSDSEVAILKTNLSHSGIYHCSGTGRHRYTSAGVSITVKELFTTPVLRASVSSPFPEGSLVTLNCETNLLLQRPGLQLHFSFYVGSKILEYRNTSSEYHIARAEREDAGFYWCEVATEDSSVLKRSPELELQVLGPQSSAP

human FcRn [8] = target: T8, human FcRn (human, UniProt P55899 24-297; P61769 21-119, limits assumed); assay: SPR, FcRn on chip, equilibrium, pH 6.0 (KDb)
T8 construct: construct not described; also called huFcRn

cynomolgus FcRn [9] = target: T9, cynomolgus FcRn (cynomolgus monkey, UniProt Q8SPV9 24-297; Q8SPW0 21-119, limits assumed); assay: SPR, FcRn on chip, equilibrium, pH 6.0 (KDb)
T9 construct: construct not described; also called cynoFcRn; cyno FcRn

[10] = target: T1, human BR3 expressed on cells; assay: BJAB cells, competition with biotin-BAFF
human FcRn [11] = target: T8, human FcRn; assay: SPR, FcRn on chip, kinetic, pH 6
cynomolgus FcRn [12] = target: T9, cynomolgus FcRn; assay: SPR, FcRn on chip, kinetic, pH 6
[13] = target: T10, human BR3 extracellular domain (human, UniProt Q96RJ3 1-61); assay: SPR, IgG on chip, BR3 ECD in solution
T10 construct: biotinylated where used as tracer; also called hBR3-ECD; BR3-ECD

[14] = target: T3, human FcγRIIa extracellular domain, …; assay: ELISA, receptor-His-GST captured by anti-GST, IgG complexed with anti-kappa F(ab')2
[15] = target: T2, human FcγRI extracellular domain, …; assay: ELISA, captured FcgR-GST; A450 ratio to 9.1RF
[16] = target: T3, human FcγRIIa extracellular domain, …; assay: ELISA, captured FcgR-GST; A450 ratio to 9.1RF
[17] = target: T5, human FcγRIIb extracellular domain, …; assay: ELISA, captured FcgR-GST; A450 ratio to 9.1RF
[18] = target: T2, human FcγRI extracellular domain, …; assay: ELISA, receptor-His-GST captured by anti-GST, uncomplexed IgG
human FcRn [19] = target: T8, human FcRn; assay: SPR, FcRn on chip, kinetic, pH 6.0 (KDa)
cynomolgus FcRn [20] = target: T9, cynomolgus FcRn; assay: SPR, FcRn on chip, kinetic, pH 6.0 (KDa)
[21] = target: T1, human BR3 expressed on cells; assay: BJAB cells, direct binding

B2: 9.1RF IgG antibody (antibody)
light: DIQMTQSPSSLSASVGDRVTITCKSSQSLLYSSNQNNYLAWYQQKPGKAPKLLIYWASTRESGVPSRFSGSGSGTDFTLTISSLQPEDFATYYCQQYYTYPYTFGQGTKVEIKRTVAAPSVFIFPPSDEQLKSGTASVVCLLNNFYPREAKVQWKVDNALQSGNSQESVTEQDSKDSTYSLSSTLTLSKADYEKHKVYACEVTHQGLSSPVTKSFNRGEC
heavy: not shown
notes: produced in CHO cells; also called h9.1-RF; Hu9.1-RF-IgG; copies: 2 + 2
Kd (human FcRn [8]): 118 nM
Kd (cynomolgus FcRn [9]): 186 nM
IC50 [10]: 0.68 nM
koff (human FcRn [11]): 0.0784 s⁻¹
kon (human FcRn [11]): 635000 M⁻¹ s⁻¹
koff (cynomolgus FcRn [12]): 0.192 s⁻¹
kon (cynomolgus FcRn [12]): 1.01e+06 M⁻¹ s⁻¹
Kd [13]: 0.169 nM
koff [13]: 0.000309 s⁻¹
kon [13]: 1.8e+06 M⁻¹ s⁻¹
EC50 (read off the curve) [14]: ~1 µg/mL
binding relative to 9.1RF [15]: 1 ratio
binding relative to 9.1RF [16]: 1 ratio
binding relative to 9.1RF [17]: 1 ratio
fold improvement in binding vs Herceptin [2]: 1 fold
fold improvement in binding vs Herceptin [3]: 2.3 fold
fold improvement in binding vs Herceptin [4]: 0.7 fold
fold improvement in binding vs Herceptin [5]: 0.7 fold
fold improvement in binding vs Herceptin [6]: 0.8 fold
fold improvement in binding vs Herceptin [7]: 1.2 fold
EC50 (read off the curve) [18]: ~0.006 µg/mL
Kd (human FcRn [19]): 123 nM
Kd (cynomolgus FcRn [20]): 191 nM
EC50 [21]: 0.46 nM

B3: 9.1RF N434A IgG (antibody)
light: B2 light
heavy: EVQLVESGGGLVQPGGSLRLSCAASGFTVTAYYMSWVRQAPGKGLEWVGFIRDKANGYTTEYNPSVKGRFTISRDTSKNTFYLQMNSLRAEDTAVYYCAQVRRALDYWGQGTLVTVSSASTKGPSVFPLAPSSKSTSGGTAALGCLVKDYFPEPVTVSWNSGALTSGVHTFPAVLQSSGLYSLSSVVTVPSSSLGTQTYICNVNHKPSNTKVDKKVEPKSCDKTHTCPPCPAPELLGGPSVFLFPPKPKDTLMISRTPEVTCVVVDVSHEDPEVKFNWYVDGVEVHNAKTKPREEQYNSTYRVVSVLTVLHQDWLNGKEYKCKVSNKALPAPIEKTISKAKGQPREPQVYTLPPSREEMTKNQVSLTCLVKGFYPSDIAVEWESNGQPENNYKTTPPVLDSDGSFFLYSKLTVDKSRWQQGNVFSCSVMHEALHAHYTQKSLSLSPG
notes: produced in CHO cells; copies: 2 + 2
Kd (human FcRn [8]): 66.6 nM
Kd (cynomolgus FcRn [9]): 62.7 nM
koff (human FcRn [11]): 0.0467 s⁻¹
kon (human FcRn [11]): 884000 M⁻¹ s⁻¹
koff (cynomolgus FcRn [12]): 0.0962 s⁻¹
kon (cynomolgus FcRn [12]): 1.7e+06 M⁻¹ s⁻¹
EC50 (read off the curve) [14]: ~2 µg/mL
binding relative to 9.1RF [15]: 0.97 ratio
binding relative to 9.1RF [16]: 0.66 ratio
binding relative to 9.1RF [17]: 0.45 ratio
EC50 (read off the curve) [18]: ~0.006 µg/mL
Kd (human FcRn [19]): 52.8 nM
Kd (cynomolgus FcRn [20]): 56.5 nM

B5: 9.1RF N434W IgG (antibody)
light: B2 light
heavy: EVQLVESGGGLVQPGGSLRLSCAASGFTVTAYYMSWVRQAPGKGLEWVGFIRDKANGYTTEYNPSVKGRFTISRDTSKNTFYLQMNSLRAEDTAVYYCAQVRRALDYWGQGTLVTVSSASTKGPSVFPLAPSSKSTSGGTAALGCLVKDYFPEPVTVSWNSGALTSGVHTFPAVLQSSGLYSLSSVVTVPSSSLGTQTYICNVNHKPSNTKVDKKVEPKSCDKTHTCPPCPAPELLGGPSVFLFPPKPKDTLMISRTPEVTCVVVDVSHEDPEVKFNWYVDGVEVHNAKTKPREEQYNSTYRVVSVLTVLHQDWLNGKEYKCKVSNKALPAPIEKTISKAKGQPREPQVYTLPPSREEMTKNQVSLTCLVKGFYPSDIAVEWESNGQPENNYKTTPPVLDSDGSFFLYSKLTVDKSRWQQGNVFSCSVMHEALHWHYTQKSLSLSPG
notes: as for B3
Kd (human FcRn [8]): 5.8 nM
Kd (cynomolgus FcRn [9]): 5.1 nM
koff (human FcRn [11]): 0.0102 s⁻¹
kon (human FcRn [11]): 4.31e+06 M⁻¹ s⁻¹
koff (cynomolgus FcRn [12]): 0.0144 s⁻¹
kon (cynomolgus FcRn [12]): 4.74e+06 M⁻¹ s⁻¹
EC50 (read off the curve) [14]: ~2 µg/mL
binding relative to 9.1RF [15]: 1 ratio
binding relative to 9.1RF [16]: 0.64 ratio
binding relative to 9.1RF [17]: 0.4 ratio
EC50 (read off the curve) [18]: ~0.006 µg/mL
Kd (human FcRn [19]): 2.37 nM
Kd (cynomolgus FcRn [20]): 3.03 nM

Second part, the binder after the results:

ADCC activity relative to 9.1wt (relative EC50 values) [1]: 2.8 fold
ADCC on BJAB cells (LDH release), EC50 [1]: < 1 nM
fold improvement in binding vs Herceptin [2]: 0.7 fold
fold improvement in binding vs Herceptin [3]: 0.2 fold
fold improvement in binding vs Herceptin [4]: 0.4 fold
fold improvement in binding vs Herceptin [5]: 0.4 fold
fold improvement in binding vs Herceptin [6]: 0.6 fold
fold improvement in binding vs Herceptin [7]: 2.5 fold
B1: 9.1RF S298A/E333A/K334A IgG (antibody)
light: B2 light
heavy: EVQLVESGGGLVQPGGSLRLSCAASGFTVTAYYMSWVRQAPGKGLEWVGFIRDKANGYTTEYNPSVKGRFTISRDTSKNTFYLQMNSLRAEDTAVYYCAQVRRALDYWGQGTLVTVSSASTKGPSVFPLAPSSKSTSGGTAALGCLVKDYFPEPVTVSWNSGALTSGVHTFPAVLQSSGLYSLSSVVTVPSSSLGTQTYICNVNHKPSNTKVDKKVEPKSCDKTHTCPPCPAPELLGGPSVFLFPPKPKDTLMISRTPEVTCVVVDVSHEDPEVKFNWYVDGVEVHNAKTKPREEQYNATYRVVSVLTVLHQDWLNGKEYKCKVSNKALPAPIAATISKAKGQPREPQVYTLPPSREEMTKNQVSLTCLVKGFYPSDIAVEWESNGQPENNYKTTPPVLDSDGSFFLYSKLTVDKSRWQQGNVFSCSVMHEALHNHYTQKSLSLSPG
notes: Fc variant of 9.1RF, transient CHO expression; copies: 2 + 2

ADCC activity relative to 9.1wt (relative EC50 values) [1]: 3 fold
ADCC on BJAB cells (LDH release), EC50 [1]: < 1 nM
fold improvement in binding vs Herceptin [2]: 0.6 fold
fold improvement in binding vs Herceptin [3]: 0.2 fold
fold improvement in binding vs Herceptin [4]: 1.3 fold
fold improvement in binding vs Herceptin [5]: 0.7 fold
fold improvement in binding vs Herceptin [6]: 1.2 fold
fold improvement in binding vs Herceptin [7]: 1.9 fold
B4: 9.1RF S298A/K326A/E333A/K334A IgG (antibody)
light: B2 light
heavy: B1 heavy with K327A
notes: as for B1
